Source: patent US11160869B2 (priority 2019, dated 2021)

How the values were obtained:
[1] = Lyophilization buffer screens: HMW/dimer/monomer by SE-HPLC before and after lyophilization; format: physicochemical
Procedure: Size exclusion chromatography (SE-HPLC) can be used to characterize the size distribution of the IL-10 delivery construct. The percentage of IL-10 delivery construct found in dimer, monomer, and aggregate forms in a liquid composition or a lyophilized composition if reconstituted in a liquid can be determined by SEC-HPLC (FIG. 34).
Further testing based on the results from the initial liquid formulation screen, initial lyophilization feasibility studies were conducted using the conditions in TABLE 9. Glycine and mannitol, known to be useful in the lyophilization of proteins as […] bulking agents were added to this screen, histidine at pH 7.0 added to provide a more granular evaluation of the effect of pH in the 7.0-7.5 range, and trehalose was added as an option to sucrose as an osmolyte. FIGS. 21 and 22 show the percentage of target constructs in the dimer form before and after incubation at 25° C. for 3 days (FIG. 21) and before and after 5 freeze/thaw cycles (FIG. 22).
Based on the results from this initial study a second lyophilization screen was conducted using the formulations listed in TABLE 10.

[2] = system: IL-1Ra; assay: Single oral capsule dose in NHP: plasma IL-1Ra; format: in vivo, Macaca fascicularis
Procedure: The purpose of the IL-1Ra assay was to measure endogenous IL-1Ra in NHP plasma. The antibody pair in this sandwich immunoassay reacted with both human and NHP IL-1Ra. Samples were quantitated using an 8-point standard curve prepared from a human IL-1Ra calibrator (ranging from 5.5-4021 pg/mL, plus 0 pg/mL). Biotinylated anti-NHP IL-1Ra capture antibody was added to a MSD Small Spot Streptavidin plate and incubated for an hour at RT with shaking. Controls that represent low ([…]), mid ([…]) and high concentrations (3245 pg/mL) were prepared in pooled plasma, Standards (Calibrator 9 Blend) were prepared in Diluent 43 (MSD Cat No R50AG), and samples diluted 10 fold in Diluent 43. Standards, controls and diluted samples were added to the assay plate, and the plate incubated for 2 hours at room temperature with shaking. The plate was washed 3 times with PBST, and 1× SULFO TAG anti-IL-1Ra Antibody added to the plate. The plate was incubated for 1 hour at room temperature with shaking. Following a wash step, 2×MSD Read buffer was added to the wells of the plate, and the plate read using the MSD Sector Imager 600 plate reader. The lower limit of detection of each analyte is defined as 2.5 standard deviation above background.
IL-10 delivery construct dosing at multiple fixed doses in non-naïve adult male Macaca fascicularis was conducted by Valley Biosystems (West Sacramento, Calif.). […] Dosing groups are described in TABLE 45.

[3] = system: IL-1Ra; assay: Systemic IL-1Ra in non-inflamed mice (ELISA MSD); format: in vivo; conditions: construct 10 mg/kg; rhIL-10 3 mg/kg; oral
[4] = system: colonic marker expression; assay: Colonic sigmoidoscopy spray in NHP: pro-/anti-inflammatory and tissue repair markers; format: in vivo, Macaca fascicularis; conditions: 1, 3, 10 mg
Procedure: To assess the effect of an IL-10 delivery construct on pro-inflammatory and anti-inflammatory markers the IL-10 delivery construct was delivered to male Macaca fascicularis monkeys (about 5 to about 8 kg) by colonic sigmoidoscopy with a spray nozzle. The IL-10 delivery construct was administered at doses of 1 mg, 3 mg, and 10 mg formulated in albumin.

[5] = PK/PD by route (oral, subcutaneous, intravenous) in NHP; format: in vivo, Macaca fascicularis
Source text: For oral administration the IL-10 delivery construct was formulated in size 0 enteric coated capsules. For intravenous or subcutaneous administration it was formulated as a liquid in DS lyo formulation.

[6] = Intraluminal injection in T-cell transfer model: rhIL-10 ELISA in intestinal tissue and serum; format: in vivo, BALB/c and SCID mice
Procedure: This study was conducted to examine the potential for the carrier protein to transport rhIL-10 from the intestinal lumen into the submucosal region in inflamed intestinal tissue. The T lymphocyte (T cell) transfer model was used as it is a well-established model of induced chronic colitis in mice and presents many of the essential immunological hallmarks observed in IBD patients. Nine BALB/c mice and twelve SCID mice, including nine with the colitis-like model of inflammation, were dosed with 20 μl of test article via intraluminal injection into the distal ileum and the proximal, middle and distal colon. […] In each group, two mice were terminated 10 minutes after intraluminal injections, and one was terminated 40 minutes after intraluminal injections. Intestinal tissue and serum were collected. Collected tissue was fixed, embedded, sectioned and H&E stained for histological assessment of inflammatory status. ELISA analysis to measure rhIL 10 was performed on lysates prepared from intestinal tissue and serum (FIGS. 106A-106D).

[7] = Phase 1a single ascending dose in healthy male volunteers; format: in vivo, human
Procedure: In part B of the study, early data was gathered on the safety and tolerability, pharmacokinetics, pharmacodynamics and early clinical response following multiple ascending doses of the IL-10 delivery construct in Ulcerative Colitis (UC) patients (Part B).
Part A consisted of a single-ascending dose (SAD) escalation in healthy male volunteers. Six cohorts consisting of orally administered single ascending doses were conducted. At each dose level, 6 subjects were enrolled, randomized 2:4 to receive a single dose of placebo or the IL-10 delivery construct on day 1. The doses selected were 1 mg, 3 mg, 10 mg, 30 mg, 60 mg, and 120 mg.

[8] = Oral gavage 10 mg/kg in non-inflamed mice: hIL-10 in serum and tissue, serum IL-1Ra; format: in vivo
[9] = system: STAT3; assay: STAT3 phosphorylation in J774.2 macrophage cells
[10] = system: human peripheral blood mononuclear cells (PBMCs); assay: LPS-induced TNFα, IL-6 and HLA-DR in PBMC monocytes, flow cytometry; conditions: pre-treatment
[11] = secondary formulation buffer screen, 0.3% Poloxamer

B1: IL-10 delivery construct: recombinant homodimeric fusion protein: N-terminal methionine, cholix386 domain, polyGlySer spacer, recombinant human IL-10 (protein)
chain: MVEEALNIFDECRSPCSLTPEPGKPIQSKLSIPSDVVLDEGVLYYSMTINDEQNDIKDEDKGESIITIGEFATVRATRHYVNQDAPFGVIHLDITTENGTKTYSYNRKEGEFAINWLVPIGEDSPASIKISVDELDQQRNIIEVPKLYSIDLDNQTLEQWKTQGNVSFSVTRPEHNIAISWPSVSYKAAQKEGSRHKRWAHWHTGLALCWLVPMDAIYNYITQQNCTLGDNWFGGSYETVAGTPKVITVKQGIEQKPVEQRIHFSKGNAMSALAAHRVCGVPLETLARSRKPRDLTDDLSCAYQAQNIVSLFVATRILFSHLDSVFTLNLDEQEPEVAERLSDLRRINENNPGMVTQVLTVARQIYNDYVTHHPGLTPEQTSAGAQAGGGGSGGGGSGGGGSPGQGTQSENSCTHFPGNLPNMLRDLRDAFSRVKTFFQMKDQLDNLLLKESLLEDFKGYLGCQALSEMIQFYLEEVMPQAENQDPDIKAHVNSLGENLKTLRLRLRRCHRFLPCENKSKAVEQVKNAFNKLQEKGIYKAMSEFDIFINYIEAYMTMKIRN
modifications: homodimer
[1]; initial lyophilization feasibility study, conditions of TABLE 9
  stability with respect to aggregation: more stable at pH7.5 with sucrose and glycine
[1]; [11]
  Pre-Lyophilization (%) Dimer: 89.2%
  Pre-Lyophilization (%) HMW: 2.6%
  Pre-Lyophilization (%) Monomer: 8.2%
[2]; 82 mg, oral
  plasma IL-1Ra Cmax: 26,367 pg/mL
  time of plasma IL-1Ra Cmax: 3 hours post-dose
[2]; all dose groups
  time by which plasma IL-1Ra returned to baseline: ≤ 24 h
[2]; compared with intravenous administration
  plasma IL-1Ra and IFN-γ after oral enteric-coated capsules: increased IL-1Ra without significant induction of IFN-γ
[3]
  increase of systemic IL-1Ra: about 3 fold
[4]
  expression of anti-inflammatory markers: increased expression of anti-inflammatory markers
  expression of pro-inflammatory markers: decreased expression of pro-inflammatory markers
  expression of tissue repair and wound healing biomarkers: increased expression of biomarkers associated with tissue repair and wound healing
[5]; oral 1 mg or 5 mgs vs SC 0.2 mg/kg, IV 0.05 mg/kg
  systemic levels of IL-10 after oral treatment: minimal systemic levels of IL-10
[5]; subcutaneous or intravenous administration
  IL-1Ra/IL-1β ratio: minimal effect
[6]; 159 pmoles
  rhIL-10 levels in inflamed tissue relative to rhIL-10 alone: approximately 10 fold higher
  uptake in normal intestinal tissues compared to rhIL-10 alone: two- to five-fold higher
[6]; 159 pmoles, 10-minute exposure
  rhIL-10 in intestinal tissue compared to rhIL-10 alone: substantially higher
[6]; intraluminal injection
  rhIL-10 in serum of healthy animals: moderately high rhIL-10 detected
  rhIL-10 in serum of inflamed animals: minimal amounts of rhIL-10 were detected
[7]; 60 and 120 mg
  IL-1Ra induction at high doses: loss of immunomodulatory activity
[7]; all doses (1-120 mg)
  drug in blood: no drug was detected in the blood
[7]; all mild, self-limiting
  adverse events in 24 active subjects: 2
[7]; single dose
  IL-1Ra expression: able to induce IL-1Ra expression
[7]; single oral doses 1-120 mg
  safety and tolerability: safe and well tolerated
[8]; 10 mg/kg
  onset of IL-1Ra induction: 2.5-4 h post oral gavage
[8]; 10 mg/kg oral gavage
  hIL-10 in small intestinal lysates relative to colonic lysates: ~10 fold higher
[8]; 10 mg/kg oral gavage, 4 h
  serum IL-1Ra levels: significantly increased
[9]
  amplitude of pSTAT3/total STAT3: ~1.47%
[9]; read-out: EC50, phosphorylation of STAT3, 20 min stimulation
  EC50: 0.264 nM
[10]
  LPS-induced secreted TNFα: dose-dependent reduction
  LPS-induced surface expression of HLA-DR: dose-dependent reduction
